Test results reported in publication PMC8993221, “Agl24 is an ancient archaeal homolog of the eukaryotic N-glycan chitobiose synthesis enzymes” (eLife, 2022).

Substrate: CC(=O)N[C@H]1[C@@H](OP(=O)(O)OP(=O)(O)OC[C@H]2O[C@@H](n3ccc(=O)[nH]c3=O)[C@H](O)[C@@H]2O)O[C@H](CO)[C@@H](O)[C@@H]1O
Test: purified protein
Format: biochemical, Sulfolobus acidocaldarius
Conditions: 0.5 mM acceptor-2 (phenyl-O-C11H22-PP-GlcNAc), TBS with 5 mM MgCl2, pH 7.5, 60 °C, 10 hr, UDP-GlcNAc 0.5-12 mM

B1: Agl24 (Saci1262) (Sulfolobus acidocaldarius DSM 639) (protein)
chain: MIDNPLLIIASGGGHTGFARAIAEYLPFKPDFVIPENDRFSKDMLLDYARKLYYVKKGKDPGQGNIVLMRNFLKIIIESGKIPKYLATIATGSNHSLIPAMFQKIKGSALYVTESQDRIITRGKTVSVLSKFSRHVFLHWNEQKGLYDNGVVVGPIVEKPKYKSENKGYILVTTGSMGFKKLFDSLLNLRGNYKFVIQTGKVDPTPYIEKKPDWSFFSFDKDIERYIANAELVITHQGKTAMESVVMYGKPTIIVYNKDWKSATTKQDTILYSKILGATFLDDPSTWDSIKVLEDSIQNVRKPNQFEIGTPKLIDIILSELAEFLRE
notes: full length (327 residues), C-terminal TEV site-GFP-His8 fusion (pWaldo, plasmid pHD0499), tags kept; E. coli BL21 membranes, DDM-solubilised, Ni purified
- Km: 1370 ± 130 µM
